In article PMC13167113:

Columns and labels:
[1] = molecular target: CXCR4 endogenous on cells (human (endogenous in Daudi and Jurkat)) (UniProt P61073)
[2] = molecular target: CXCR4 endogenous on cells (human (endogenous in Daudi and Jurkat)) (UniProt P61073); remark: listed apart in the source

UniProt P61073, sequence (P61073 whole entry): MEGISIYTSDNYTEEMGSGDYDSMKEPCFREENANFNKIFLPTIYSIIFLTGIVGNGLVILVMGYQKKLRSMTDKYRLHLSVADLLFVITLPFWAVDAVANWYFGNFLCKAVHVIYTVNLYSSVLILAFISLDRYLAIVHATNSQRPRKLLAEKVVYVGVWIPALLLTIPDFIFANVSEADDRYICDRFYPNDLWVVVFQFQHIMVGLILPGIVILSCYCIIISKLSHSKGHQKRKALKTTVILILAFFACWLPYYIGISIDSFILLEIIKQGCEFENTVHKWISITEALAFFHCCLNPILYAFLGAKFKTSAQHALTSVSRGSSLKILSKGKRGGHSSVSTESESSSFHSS

## recombinant X4 HIV-1 gp120 (residues 31-507, isolate HXB2) with a C-terminal histidine tag (from UniProt P04578 31-507) (domain or fragment)
[1]
  SPT-TIRF: percentage of CXCR4-AcGFP particles that are nanoclusters (≥3 receptors/particle) on JKCD4+X4- cells on X4-gp120-coated coverslips (basal ∼2%): 18%

## X4 HIV-1 Env (gp120 and gp41) of HXB2 on virus-like particles (from UniProt P04578 33-511; P04578 512-856) (complex)
[2]
  SPT-TIRF: percentage of CXCR4-AcGFP particles that are nanoclusters (≥3 receptors/particle) on JKCD4+X4- cells on gp120-VLP-coated coverslips (basal ∼1%; Env(-) VLPs ∼9%): 29%
